Data published in patent US20230293578A1, “TREATMENT OF BACTERIAL VAGINOSIS” (priority 2020, published 2023).

Experiments:
[1] = tested on: G. vag strain 14.2; experiment: antibiotic synergy testing, checkerboard cross dilution method in broth cultures; assay type: cell-based, Gardnerella vaginalis; settings: 4 mg/mL bLF, 24 hr
[2] = in vivo
Excerpt: Zinc levels in vaginal fluid of BV have also been measured. Recommended zinc levels for bacterial growth are not readily available as zinc toxicity is low and the capacity of bacteria to store zinc is high, thus contributing to a very wide range of acceptable zinc levels that will support bacterial growth. […] Furthermore, in an L. iners based microbiome that has not progressed to full blown BV, a significant increase in calprotectin is also seen. Thus, when an altered microbiome takes hold, the body appears to be an active conspirator in discouraging L. Crispatus-type re-growth.
The remainder is expelled. This means that free iron is released from a dose of bovine lactoferrin that is partially saturated with iron and may become accessible to bacteria. Even if the released iron is immediately bound by the remaining lactoferrin, this proteolysis will inevitably increase the overall saturation percentage of the remaining bovine lactoferrin. In turn, it will also increase the saturation of human lactoferrin, since bovine and human forms exist in relative equilibrium considering that their bindings constants are similar. It also follows, that lowering the initial iron saturation of bovine lactoferrin will lower human lactoferrin's iron saturation levels and thus provide the least access to the bacterial binding proteins that scavenge iron from human lactoferrin. […]

[3] = tested on: Gardnerella vaginalis; experiment: G. vaginalis growth in liquid culture, viability as CFU
Procedure: G. vag isolates were recovered from the vaginal discharge of BV positive patients and identification at the species level was performed by species-specific PCR using the primer pairs G. vaginalis V2-R1 and G. vaginalis V6-U2.
Cells were grown in aerobic conditions at 37° C. at 5% CO2 in PMD medium. PMD medium contains: proteose peptone No. 3 (BD211693) 15 g/L, maltone 2 g/L, dextrose 1 g/L, Na2HPO2 1 g/L, NaH2PO4 1 g/L adjusted to pH6.8. High Iron PMD medium additional contains 500 mg/L human hemoglobin. No Iron PMD is prepare by treating PMD medium with Chelex® 100 Chelating Resin (Bio-Rad Cat #1432832) then adding back 0.1 mM magnesium sulfate, 0.1 mM calcium chloride, and 10 μM zinc chloride. Low Iron PMD medium is prepared by adding 10 μM ferric ammonium citrate (FAC) to No Iron PMD. Overnight broth cultures of G. vaginalis were grown in High Iron PMD, centrifuged, resuspended No Iron PMD, incubated for 2 hr at 37° C. then diluted to 2.5×10^7 cells/mL in Low Iron PMD. Cells were grown in liquid culture for 24-48 hr then plated on agar to assess viability (expressed as colony forming units per mL (CFU)). Bulk bLF was dissolved in water and diluted in culture medium.

B1: bovine lactoferrin (protein, UniProt P24627 20-708, looked up)
Lactotransferrin: APRKNVRWCTISQPEWFKCRRWQWRMKKLGAPSITCVRRAFALECIRAIAEKKADAVTLDGGMVFEAGRDPYKLRPVAAEIYGTKESPQTHYYAVAVVKKGSNFQLDQLQGRKSCHTGLGRSAGWIIPMGILRPYLSWTESLEPLQGAVAKFFSASCVPCIDRQAYPNLCQLCKGEGENQCACSSREPYFGYSGAFKCLQDGAGDVAFVKETTVFENLPEKADRDQYELLCLNNSRAPVDAFKECHLAQVPSHAVVARSVDGKEDLIWKLLSKAQEKFGKNKSRSFQLFGSPPGQRDLLFKDSALGFLRIPSKVDSALYLGSRYLTTLKNLRETAEEVKARYTRVVWCAVGPEEQKKCQQWSQQSGQNVTCATASTTDDCIVLVLKGEADALNLDGGYIYTAGKCGLVPVLAENRKSSKHSSLDCVLRPTEGYLAVAVVKKANEGLTWNSLKDKKSCHTAVDRTAGWNIPMGLIVNQTGSCAFDEFFSQSCAPGADPKSRLCALCAGDDQGLDKCVPNSKEKYYGYTGAFRCLAEDVGDVAFVKNDTVWENTNGESTADWAKNLNREDFRLLCLDGTRKPVTEAQSCHLAVAPNHAVVSRSDRAAHVKQVLLHQQALFGKNGKNCPDKFCLFKSETKNLLFNDNTECLAKLGGRPTYEEYLGTEYVTAIANLKKCSTSPLLEACAFLTR
notes: bulk bLF dissolved in water for in vitro tests
[1]
  growth inhibited: 19.3%
[2]
  share of a vaginal dose broken down via vaginal or bacterial proteases: ≤ 20%
[3]; G. vag isolate 14.2, Low Iron PMD, FIG. 2
  concentration range of dose-dependent inhibition of G. vag growth: 0.5 to 32 mg/mL
[3]; iron-containing bovine lactoferrin preparation
  effect on G. vaginalis growth: growth suppression
